Kd and stoichiometry N data for two substances are collected here from publication PMC6544321.

For assay [1], the target named is A. thaliana Z-B dimer (AtH2A.Z/AtH2B dimer) (Arabidopsis thaliana). The assay is described as follows: ITC; AtChz1b (253-463) with A. thaliana histone dimers in 0.1 M NaCl. (In general: ITC needs no label: the signal is the heat of the interaction.)
For assay [2] the target is unchanged. The assay is described as follows: ITC; AtChz1b (253-463) with A. thaliana histone dimers in 0.25 M NaCl.
Assay [3] deals with single chain H2A-H2B with H2A P50A/N91G (yeast). The assay is described as follows: ITC; 0.2 M NaCl (Table 1); Swc2-Z or Chz1-M injected into single-chain histone dimers; otherwise as the ITC methods (25°C, 20 mM MES pH 6.0).
Assay [4] addresses yeast single chain H2A-H2B (yeast). The description is as above.
In assay [5] the target is yeast single-chain H2A.Z-H2B (yeast). The description is as above.
Assay [6] deals with single-chain H2A.Z-H2B with H2A.Z A57P/G98N (yeast). The assay is described as above.

Take “AtChz1b (residues 253–463) (domain or fragment)”: the values for the Kd in assay [1] and in assay [2] were 50 nM and 19900 nM, respectively.

For the substance “Swc2-Z, the 1–136 segment of the Swc2 subunit of the SWR1 complex (domain or fragment)”, the Kd (commonly the constant that tells how readily two partners part at equilibrium) turned out to be 170 nM in assay [3], 40 nM in assay [5] and 40 nM in assay [6]. Besides, the stoichiometry N (commonly the number of molecules, sites or subunits per partner or assembly) in assay [3] worked out at 1 sites; in assay [4] it was 0.9 sites; in assay [5], 1.1 sites; in assay [6], 0.8 sites.
